The values that follow come from article PMC8163987.

The target of the assay is cytoplasmic region of YhcB from Haemophilus ducreyi (residues 31 to 128) with I51M and L72M mutations (Haemophilus ducreyi) (UniProt Q7VLF5). Kind of assay: crystal structure; microbatch under paraffin oil, 2.0 M ammonium sulfate; SAD phasing of selenomethionine-labeled protein; 2.8 Å.

As for “cytoplasmic region of YhcB from Haemophilus ducreyi (residues 31 to 128) with I51M and L72M mutations (from UniProt Q7VLF5 31-128) (domain or fragment)”, the stoichiometry N amounted to 4.

What is called stoichiometry N is a count of units in the complex or per binding partner.
